Among the data in paper PMC7566563 are Kd values, retold here.

The target in the data set is Cglo-CDPS-S32A (Candidatus Glomeribacter gigasporarum) (UniProt G2JBB2). Briefly: EMSA. The following applies: 8 mM MgCl2; apparent Kd, 3 experiments; 3'-phenylalanylated; native E. coli modifications (s4U8, D16, D20, psi32, psi39, ms2i6A37, m7G46, acp3U47, T54, psi55); EMSA: 75 nM tRNA, 0.1-15 uM enzyme, 20 min at 4 C in buffer A (10 mM MOPS pH 6.7, 200 mM NaCl, 8 mM MgCl2, 5 mM 2-mercaptoethanol); native 12% gel in 90 mM …. Background: In EMSA bound probe runs differently from free probe, usually more slowly.

Take Phe-tRNAPhe: the Kd was found to be 1600 nM.
